Measurements: patent US20160039904A1, “STABILIZED SINGLE HUMAN CD4 DOMAINS AND FUSION PROTEINS” (priority 2013, published 2016)

Columns and labels:
Assay in all cases: cell-based or functional assay
[1] = biological target: HIV-1 Env of isolate 89.6 (HIV-1)
[2] = biological target: HIV-1 Env of isolate 92UG037.8 (HIV-1)
[3] = biological target: HIV-1 Env of isolate Bal (HIV-1)
[4] = biological target: HIV-1 Env of isolate CM243 (HIV-1)
[5] = biological target: HIV-1 Env of isolate GXC (HIV-1)
[6] = biological target: HIV-1 Env of isolate GXE (HIV-1)
[7] = biological target: HIV-1 Env of isolate IIIB (HIV-1)
[8] = biological target: HIV-1 Env of isolate JRCSF (HIV-1) (UniProt P20871)
[9] = biological target: HIV-1 Env of isolate JRFL (HIV-1)
[10] = biological target: HIV-1 Env of isolate NL4-3 (HIV-1)
[11] = biological target: HIV-1 Env of isolate R2 (HIV-1)
[12] = biological target: HIV-1 Env of isolate Z2Z6 (HIV-1)
[13] = biological target: HIV-1 Env of isolate 55815.EC3 (HIV-1)
[14] = biological target: HIV-1 Env of isolate 57128.VRC18 (HIV-1)
[15] = biological target: HIV-1 Env of isolate A07412VRC12A (HIV-1)
[16] = biological target: HIV-1 Env of isolate AD8 (HIV-1)
[17] = biological target: HIV-1 Env of isolate BZ167.ec9 (HIV-1)
[18] = biological target: HIV-1 Env of isolate Bal.EC1 TC (HIV-1)
[19] = biological target: HIV-1 Env of isolate CAM0015BBY.EC3 (HIV-1)
[20] = biological target: HIV-1 Env of isolate CM240.EC1 (HIV-1)
[21] = biological target: HIV-1 Env of isolate GS-015.EC12 (HIV-1)
[22] = biological target: HIV-1 Env of isolate KNH1088.EC5 (HIV-1)
[23] = biological target: HIV-1 Env of isolate KNH1144.EC1 (HIV-1)
[24] = biological target: HIV-1 Env of isolate N1 1046.e3 PV (HIV-1)
[25] = biological target: HIV-1 Env of isolate PBL286.VRC36aPV (HIV-1)

Sequence of HIV-1 Env of isolate JRCSF (HIV-1) (P20871 32-848 limits assumed): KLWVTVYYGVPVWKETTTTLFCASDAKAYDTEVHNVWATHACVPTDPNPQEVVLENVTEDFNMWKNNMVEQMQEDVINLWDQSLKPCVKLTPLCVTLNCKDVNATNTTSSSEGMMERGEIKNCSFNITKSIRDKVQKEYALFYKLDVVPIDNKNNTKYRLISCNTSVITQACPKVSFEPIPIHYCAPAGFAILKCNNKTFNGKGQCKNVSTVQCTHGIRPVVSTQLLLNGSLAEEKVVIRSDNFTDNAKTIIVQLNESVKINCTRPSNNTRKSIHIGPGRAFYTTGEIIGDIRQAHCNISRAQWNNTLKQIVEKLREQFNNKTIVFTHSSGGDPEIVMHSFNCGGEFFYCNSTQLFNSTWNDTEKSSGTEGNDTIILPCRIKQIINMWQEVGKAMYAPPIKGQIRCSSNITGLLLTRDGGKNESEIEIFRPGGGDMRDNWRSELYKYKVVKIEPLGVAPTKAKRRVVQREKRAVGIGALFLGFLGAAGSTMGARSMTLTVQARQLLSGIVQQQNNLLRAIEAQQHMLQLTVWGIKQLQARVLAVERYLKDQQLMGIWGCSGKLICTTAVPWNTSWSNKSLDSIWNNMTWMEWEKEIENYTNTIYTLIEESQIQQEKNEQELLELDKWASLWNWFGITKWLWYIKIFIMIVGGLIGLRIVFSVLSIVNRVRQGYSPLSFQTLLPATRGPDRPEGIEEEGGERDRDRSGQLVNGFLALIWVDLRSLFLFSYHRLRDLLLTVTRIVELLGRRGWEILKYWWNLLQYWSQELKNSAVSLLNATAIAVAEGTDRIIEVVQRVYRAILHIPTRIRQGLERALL

2G12 (antibody) showed an IC50, neutralization of pseudotyped HIV-1 [1] of 1.3 nM, an IC90, neutralization of pseudotyped HIV-1 [1] of 43 nM and an IC50, neutralization of pseudotyped HIV-1 [2] of 0.53 nM. For the same substance, the IC50, inhibition of Env-mediated cell-cell fusion [3] was 38 nM, the IC90, inhibition of Env-mediated cell-cell fusion [3] was over 67 nM and the IC90, neutralization of pseudotyped HIV-1 [3] was 41 nM. For the same substance, the IC50, neutralization of pseudotyped HIV-1; '-' = No significant neutralization at the highest antibody concentration (67 nM) tested [4] was over 67 nM, the IC90, neutralization of pseudotyped HIV-1; '-' = No significant neutralization at the highest antibody concentration (67 nM) tested [4] was over 67 nM and the IC50, neutralization of pseudotyped HIV-1; '-' = No significant neutralization at the highest antibody concentration (67 nM) tested [5] was over 67 nM. The IC90, neutralization of pseudotyped HIV-1; '-' = No significant neutralization at the highest antibody concentration (67 nM) tested [5] was over 67 nM, the IC50, neutralization of pseudotyped HIV-1; '-' = No significant neutralization at the highest antibody concentration (67 nM) tested [6] was over 67 nM and the IC90, neutralization of pseudotyped HIV-1; '-' = No significant neutralization at the highest antibody concentration (67 nM) tested [6] was over 67 nM. For the same substance, the IC50, neutralization of pseudotyped HIV-1 [7] was 1.5 nM, the IC90, neutralization of pseudotyped HIV-1 [7] was 9.3 nM and the IC50, neutralization of pseudotyped HIV-1 [8] was 0.58 nM. For the same substance, the IC90, neutralization of pseudotyped HIV-1 [8] was 9.3 nM, the IC50, neutralization of pseudotyped HIV-1 [9] was 3 nM and the IC90, inhibition of Env-mediated cell-cell fusion [9] was 67 nM. The IC50, neutralization of pseudotyped HIV-1 [10] was 1.3 nM, the IC50, neutralization of pseudotyped HIV-1 [11] was 0.68 nM and the IC90, neutralization of pseudotyped HIV-1 [11] was 4.6 nM. The IC50, neutralization of pseudotyped HIV-1 [12] was 0.7 nM.

Substance VRC01 (antibody) has an IC50, neutralization in TZM-bl cell-based assay [13] of 0.33 nM, an IC90, neutralization in TZM-bl cell-based assay [13] of 2.6 nM and an IC50, neutralization in TZM-bl cell-based assay [14] of over 167 nM. It also gave an IC90, neutralization in TZM-bl cell-based assay [14] of over 167 nM, an IC50, neutralization of pseudotyped HIV-1 [1] of 0.37 nM and an IC50, neutralization of pseudotyped HIV-1 [2] of 0.33 nM. For the same substance, the IC90, neutralization of pseudotyped HIV-1 [2] was 3.8 nM, the IC50, neutralization in TZM-bl cell-based assay [15] was 1.3 nM and the IC90, neutralization in TZM-bl cell-based assay [15] was 6 nM. The IC50, neutralization of pseudotyped HIV-1 [16] was 0.36 nM, the IC90, neutralization of pseudotyped HIV-1 [16] was 4.3 nM and the IC90, neutralization in TZM-bl cell-based assay [17] was 31 nM. It also gave an IC50, inhibition of Env-mediated cell-cell fusion [3] of 2.6 nM, an IC50, neutralization of pseudotyped HIV-1 [3] of 0.11 nM and an IC90, inhibition of Env-mediated cell-cell fusion [3] of 24 nM. It also gave an IC90, neutralization of pseudotyped HIV-1 [3] of 0.56 nM, an IC50, neutralization in TZM-bl cell-based assay [18] of 0.39 nM and an IC90, neutralization in TZM-bl cell-based assay [18] of 5.2 nM. For the same substance, the IC50, neutralization in TZM-bl cell-based assay [19] was 21 nM, the IC90, neutralization in TZM-bl cell-based assay [19] was over 167 nM and the IC50, neutralization in TZM-bl cell-based assay [20] was 0.66 nM. For the same substance, the IC50, neutralization of pseudotyped HIV-1 [4] was 0.53 nM, the IC90, neutralization of pseudotyped HIV-1 [4] was 9.5 nM and the IC50, neutralization in TZM-bl cell-based assay [21] was over 167 nM. The IC90, neutralization in TZM-bl cell-based assay [21] was over 167 nM, the IC90, neutralization of pseudotyped HIV-1 [5] was 6.6 nM and the IC50, neutralization of pseudotyped HIV-1 [6] was 2 nM. The IC90, neutralization of pseudotyped HIV-1 [6] was 26 nM, the IC50, neutralization of pseudotyped HIV-1 [7] was 0.26 nM and the IC90, neutralization of pseudotyped HIV-1 [7] was 0.83 nM. The IC50, neutralization of pseudotyped HIV-1 [8] was 0.28 nM, the IC90, neutralization of pseudotyped HIV-1 [8] was 5.6 nM and the IC50, neutralization of pseudotyped HIV-1 [9] was 0.31 nM. The IC90, neutralization of pseudotyped HIV-1 [9] was 0.82 nM, the IC50, neutralization in TZM-bl cell-based assay [22] was 3 nM and the IC90, neutralization in TZM-bl cell-based assay [23] was 9.5 nM. The IC50, neutralization in TZM-bl cell-based assay [24] was 4.2 nM, the IC50, neutralization of pseudotyped HIV-1 [10] was 0.25 nM and the IC90, neutralization of pseudotyped HIV-1 [10] was 2.6 nM. For the same substance, the IC90, neutralization in TZM-bl cell-based assay [25] was 10 nM, the IC50, neutralization of pseudotyped HIV-1 [11] was 0.34 nM and the IC90, neutralization of pseudotyped HIV-1 [11] was 4.4 nM. It also gave an IC50, neutralization of pseudotyped HIV-1 [12] of 0.11 nM and an IC90, neutralization of pseudotyped HIV-1 [12] of 0.85 nM.

b12 (antibody) gave an IC50, neutralization in TZM-bl cell-based assay [13] of over 167 nM, an IC90, neutralization in TZM-bl cell-based assay [13] of over 167 nM and an IC90, neutralization in TZM-bl cell-based assay [14] of 30 nM. The IC50, neutralization in TZM-bl cell-based assay [15] was 12 nM, the IC90, neutralization in TZM-bl cell-based assay [15] was over 167 nM and the IC90, neutralization in TZM-bl cell-based assay [17] was over 167 nM. For the same substance, the IC90, neutralization in TZM-bl cell-based assay [18] was 3.6 nM, the IC50, neutralization in TZM-bl cell-based assay [19] was 81 nM and the IC90, neutralization in TZM-bl cell-based assay [19] was over 167 nM. For the same substance, the IC50, neutralization in TZM-bl cell-based assay [20] was 82 nM, the IC90, neutralization in TZM-bl cell-based assay [20] was over 167 nM and the IC50, neutralization in TZM-bl cell-based assay [21] was 0.085 nM. It also gave an IC90, neutralization in TZM-bl cell-based assay [21] of 1.6 nM, an IC50, neutralization in TZM-bl cell-based assay [22] of 117 nM and an IC90, neutralization in TZM-bl cell-based assay [22] of over 167 nM. It also gave an IC50, neutralization in TZM-bl cell-based assay [23] of over 167 nM, an IC90, neutralization in TZM-bl cell-based assay [23] of over 167 nM and an IC50, neutralization in TZM-bl cell-based assay [24] of 138 nM. The IC90, neutralization in TZM-bl cell-based assay [24] was over 167 nM, the IC50, neutralization in TZM-bl cell-based assay [25] was 4 nM and the IC90, neutralization in TZM-bl cell-based assay [25] was 19 nM.
